{"source": "patent US20250304700A1", "about": "“ANTI-BLOOD DENDRITIC CELL ANTIGEN 2 ANTIBODIES AND USES THEREOF” (Biogen MA Inc., priority 2012, published 2025)", "data": [{"molecular_target": "T1, surface human BDCA2 (Homo sapiens, UniProt Q8WTT0)", "T1 construct": "stably transfected DG44 CHO cells co-expressing full-length BDCA2 and FcεRIγcDNAs (human or cynomolgus monkey); expressed in transfected cells", "T1 sequence (Q8WTT0 1-213)": "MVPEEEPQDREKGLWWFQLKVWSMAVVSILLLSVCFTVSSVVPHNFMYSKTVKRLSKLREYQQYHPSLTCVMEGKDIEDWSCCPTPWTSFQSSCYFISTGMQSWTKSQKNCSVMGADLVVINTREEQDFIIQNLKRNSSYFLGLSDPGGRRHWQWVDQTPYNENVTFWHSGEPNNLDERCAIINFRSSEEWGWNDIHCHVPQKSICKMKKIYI", "T1 sequence (P30273 19-86 partner)": "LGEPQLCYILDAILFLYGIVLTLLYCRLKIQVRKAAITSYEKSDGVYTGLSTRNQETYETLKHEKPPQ", "experiment": "Direct binding dilution titration FACS on surface human BDCA2", "settings": "transfected cells co-expressing BDCA2 and FcεRIγ", "protocol": "Expression vectors (ch24F4 heavy chain vectors pYL670 or pYL672 and ch24F4 light chain vector pYL671) were co-transfected into 293-EBNA cells and transfected cells were tested for antibody secretion and specificity (empty vector- and a molecularly cloned irrelevant mAb vector-transfected cells served as controls). […] Direct FACS binding to surface human BDCA2 confirmed the specificity of ch24F4. The EC50 binding of both variants of ch24F4 was equivalent to that of the murine 24F4 mAb by direct binding to surface expressed human BDCA2 by dilution titration FACS assay. Stable CHO cell lines secreting ch24F4-huIgG1, kappa mAb and agly ch24F4-huIgG4/G1 hybrid kappa mAb were produced by co-transfection with pYL672/pYL671 and pYL670/pYL671, respectively.\nSite-directed mutagenesis was performed using Agilent's QuikChange II mutagenesis kit following the manufacturer's recommended protocol. The C95S variant was constructed using the mutagenic primer 5′ GCAACCTATTACTGTCAACAAAGTAATGAGGATCCTCGGAC 3′ (SEQ ID NO: 38) and its reverse complement, which introduced a new HincII site, producing plasmid pEAG2678. The C95T variant was constructed using the mutagenic primer 5′ CAACCTATTACTGTCAGCAAACTAATGAAGATCCTCGGACGTTCG 3′ (SEQ ID NO: 39) and its reverse complement, which removed a BamHI site, producing plasmid pEAG2679. […]", "values": [{"molecule": "H5/L1: hu24F4 variant, heavy chain version H5 (SEQ ID NO: 49), light chain version L1 (antibody, V domains shown) VH: DVQLVQSGGGLVKPGGSLRLSCAASGFTFSTYTMSWVRQAPGKGLEWVATISPGDSFGYYYPDSVQGRFTISRDNAKNSLYLQMNRLRAEDTAVYYCTRDIYYNYGAWFAYWGRGTLVTVSS VL: DIQLTQSPSSLSASVGDRVTITCKASQSVDYDGDSYMNWYQQKPGKAPKLLIYAASTLESGVPSRFSGSGSGTDFTLTISSLQPEDFATYYCQQSNEDPRTFGQGTKVEIK", "direct binding to surface human BDCA2, in words": "“best” variants"}]}, {"system": "CD62L on the surface of human pDCs", "experiment": "CD62L surface expression on pDCs by flow cytometry", "type": "cell-based", "settings": "PBMC pre-treated 30 minutes, then 10 μg/mL BIIB059 for 1 hour", "protocol": "The MFI of CD62L was determined by gating on pDCs as defined by CD14−, CD20−, HLA-DR+ and CD123+.\nMetalloproteinase are known to induce CD62L shedding from the surface of immune cells. […] The surface expression of CD62L was assayed by flow cytometry. GM6001 inhibited the BIIB059-mediated down-modulation CD62L in a dose dependent manner (FIG. 45).", "values": [{"molecule": "CNC(=O)[C@H](Cc1c[nH]c2ccccc12)NC(=O)[C@@H](CC(=O)NO)CC(C)C", "note": "[GM6001, reference compound]", "BIIB059-mediated down-modulation of CD62L": "inhibited"}]}, {"molecular_target": "T2, human BDCA2 ectodomain (Homo sapiens, UniProt Q8WTT0)", "T2 construct": "huBDCA2 ectodomain: residues 257-425 above (underlined); murine IgG2a Fc (with G4S linker) (N, cleaved yes); made in house", "T2 sequence (Q8WTT0 45-213)": "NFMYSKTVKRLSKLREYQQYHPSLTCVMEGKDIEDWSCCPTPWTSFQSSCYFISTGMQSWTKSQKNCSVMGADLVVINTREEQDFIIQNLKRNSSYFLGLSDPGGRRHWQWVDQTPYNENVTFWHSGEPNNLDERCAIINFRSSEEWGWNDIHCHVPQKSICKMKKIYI", "experiment": "Octet binding of mAbs on anti-human Fc tips to monomeric huBDCA2", "settings": "Example 5, conditioned medium, hu24F4 variants", "protocol": "Site-directed mutagenesis was performed using Agilent's QuikChange II mutagenesis kit following the manufacturer's recommended protocol. The C95S variant was constructed using the mutagenic primer 5′ GCAACCTATTACTGTCAACAAAGTAATGAGGATCCTCGGAC 3′ (SEQ ID NO: 38) and its reverse complement, which introduced a new HincII site, producing plasmid pEAG2678. The C95T variant was constructed using the mutagenic primer 5′ CAACCTATTACTGTCAGCAAACTAATGAAGATCCTCGGACGTTCG 3′ (SEQ ID NO: 39) and its reverse complement, which removed a BamHI site, producing plasmid pEAG2679. Mutated plasmids were identified by screening for the introduced restriction site changes. The full-length light chain cDNA sequences in the resultant plasmids were confirmed by DNA sequencing. Wildtype ch24F4 and the C95S and C95T variant mAbs were expressed transiently in 293E cells by co-transfection of pYL672 and pYL671, pEAG2678 or pEAG2679. Conditioned medium was harvested at 2 days post-transfection. Titers (assayed by Octet on anti-human Fc tips) of both variants were similar to that of wildtype ch24F4, and Western blots of nonreducing SDS-PAGE indicated no gross aggregation or obvious clipping relative to wildtype ch24F4 mAb. […] Conditioned medium containing ch24F4 and the C95 variant mAbs was assayed by Octet for binding to human BDCA2 ectodomain. Antibodies from conditioned medium from transiently transfected cells were bound to anti-human Fc tips, then monomeric huBDCA2 was flowed over the Octet tips, to examine binding and dissociation.\nConditioned medium containing ch24F4 and all hu24F4 variant mAbs was assayed by Octet for binding to human BDCA2 ectodomain. The monomeric huBDCA2 ectodomain was prepared by proteolytic cleavage from the purified muIgG2a Fc-huBDCA2 fusion protein (relevant plasmid: pEAG2423). Antibodies from conditioned medium from transiently transfected cells were bound to anti-human Fc tips, and then monomeric huBDCA2 was flowed over the Octet tips, to examine binding and dissociation.\nTo explore the possibility of enhancing hu24F4 affinity by substitution at the position of the 24F4 version L1 CDR L3 unpaired cysteine (C95S in hu24F4 light chain expression vector pYL740), a number of version L1 variants were constructed by site-directed mutagenesis. Backmutation to the unpaired cysteine, i.e., S95C, was constructed by site-directed mutagenesis producing plasmid pYL749. Variants S95T, S95A, and S95V were constructed by site-directed mutagenesis producing plasmids pYL750, pYL751, and pYL752, respectively. The full-length light chain cDNA sequences in the resultant plasmids were confirmed by DNA sequencing. C95 variant hu24F4 mAbs were expressed transiently in 293E cells by co-transfection of hu24F4 H4 heavy chain pYL746 or hu24F4 H5 heavy chain pYL747 with hu24F4 L1 variant light chains C95S pYL740, S95C pYL749, S95T pYL750, S95A pYL751 or S95V pYL752 plasmids. Conditioned medium was harvested at 2 days post-transfection. Titers (assayed by Octet on anti-human Fc tips) of all variants were similar, and Western blots of nonreducing SDS-PAGE indicated no gross aggregation or obvious clipping. Conditioned medium containing the C95 variant mAbs was assayed by Octet for binding to human BDCA2 ectodomain. Antibodies from conditioned medium from transiently transfected cells were bound to anti-human Fc tips, then monomeric huBDCA2 was flowed over the Octet tips, to examine binding and dissociation. C95A variants had the slowest off-rates.", "units": {"kdis": "s⁻¹", "kon": "M⁻¹ s⁻¹"}, "values": [{"molecule": "H3/L1: hu24F4 variant, heavy chain version H3 (SEQ ID NO: 46), light chain version L1 (antibody, V domains shown) VH: EVQLVESGGGLVKPGGSLRLSCAASGFTFSTYTMSWVRQAPGKGLEWVSTISPGDSFGYYYPDSVQGRFTISRDNAKNSLYLQMNSLRAEDTAVYYCARDIYYNYGAWFAYWGQGTLVTVSS VL: DIQLTQSPSSLSASVGDRVTITCKASQSVDYDGDSYMNWYQQKPGKAPKLLIYAASTLESGVPSRFSGSGSGTDFTLTISSLQPEDFATYYCQQSNEDPRTFGQGTKVEIK", "kdis": 0.00586, "kon": 452000}, {"molecule": "H2/L1: hu24F4 variant, heavy chain version H2 (SEQ ID NO: 44), light chain version L1 (antibody, V domains shown) VH: EVQLVESGGGLVKPGGSLRLSCAASGFTFSTYTMSWVRQAPGKGLEWVSTISPGDSSTIYYADSVKGRFTISRDNAKNSLYLQMNSLRAEDTAVYYCARDIYYNYGAWFAYWGQGTLVTVSS VL: DIQLTQSPSSLSASVGDRVTITCKASQSVDYDGDSYMNWYQQKPGKAPKLLIYAASTLESGVPSRFSGSGSGTDFTLTISSLQPEDFATYYCQQSNEDPRTFGQGTKVEIK", "kdis": "3.35e-06", "kon": 100000}, {"molecule": "H1/L1: hu24F4 variant, heavy chain version H1 (SEQ ID NO: 42), light chain version L1 (antibody, V domains shown) VH: EVQLVESGGGLVKPGGSLRLSCAASGFTFSTYTMSWVRQAPGKGLEWVSTISPGDSFGYYPDSVKGRFTISRDNAKNSLYLQMNSLRAEDTAVYYCARDIYYNYGAWFAYWGQGTLVTVSS VL: DIQLTQSPSSLSASVGDRVTITCKASQSVDYDGDSYMNWYQQKPGKAPKLLIYAASTLESGVPSRFSGSGSGTDFTLTISSLQPEDFATYYCQQSNEDPRTFGQGTKVEIK", "kdis": "5.03e-06", "kon": 100000}, {"molecule": "H6/L0: hu24F4 variant, heavy chain version H6 (SEQ ID NO: 52), light chain version L0 (SEQ ID NO: 54) (antibody, V domains shown) VH: DVQLVESGGGLVKPGGSLRLSCAASGFTFSTYTMSWVRQAPGKGLEWVATISGGNNYGYSYPDSVKGRFTISRDNAKNSLYLQMNSLRAEDTAVYYCTRDIYYNYGAWFAYWGQGTLVTVSS VL: AIQLTQSPSSLSASVGDRVTITCKASQSVDYDGDSYMNWYQQKPGKAPKLLIYAASTLESGVPSRFSGSGSGTDFTLTISSLQPEDFATYYCQQSNEDPRTFGQGTKVEIK", "kdis": 0.00137, "kon": 273000}, {"molecule": "H0/L1: hu24F4 variant, heavy chain version H0 (SEQ ID NO: 40), light chain version L1 (SEQ ID NO: 56) (antibody, V domains shown) VH: EVQLVESGGGLVKPGGSLRLSCAASGFTFSTYTMSWVRQAPGKGLEWVSAISGSGGSTYYADSVKGRFTISRDNAKNSLYLQMNSLRAEDTAVYYCARDIYYNYGAWFAYWGQGTLVTVSS VL: DIQLTQSPSSLSASVGDRVTITCKASQSVDYDGDSYMNWYQQKPGKAPKLLIYAASTLESGVPSRFSGSGSGTDFTLTISSLQPEDFATYYCQQSNEDPRTFGQGTKVEIK", "kdis": "9.5e-06", "kon": 100000}]}]}
